Laboratory results from PMC3491091.

Target: soybean trypsin inhibitor (soybean) (UniProt P01070)
Test: SPR + ITC + AUC + fluorescence polarisation

stoichiometry N: 2
Substance: α-chymotrypsin (enzyme)
